Assay results reported in US10801046B2, “Methods and materials for biosynthesizing multifunctional, multivariate molecules via carbon chain modification” (INVISTA NORTH AMERICA S.A.R.L., priority 2016, dated 2020).

assay: In vivo aminotransferase activity screening, 7-aminoheptanoate by LC-MS; assay type: cell-based, Escherichia coli; settings: in vivo conversion of 7-oxoheptanoate to 7-aminoheptanoate, 120 aminotransferases screened
Protocol: A 165-member aminotransferase library from Twist on IPTG-inducible T7- pUC expression vectors was co-transformed into T7 Express lysY/Iq with a constitutive expression pJ23150-derived plasmid bearing the phosphopantetheinyl transferase sfp from Bacillus subtilis, CAR_Srot from Invista and BioC from Serratia marcescens (UniprotKB Accession No. P36571 (SEQ ID NO: 165)). The resulting strains were incubated in 0.5 ml of rich media (terrific broth or LB containing 8% glycerol) supplemented with 0.4 mM IPTG and received 1 g/L monomethyl heptanedioate, 1 g/L heptanedioate, or no organic acid addition, depending on the experiment. Following incubation overnight at 37° C. in a shaking incubator, cells were pelleted and the supernatants were analyzed using LC-MS for 7-aminoheptanoate or monomethyl 7-aminoheptanoate. A Vibrio fluvialis aminotransferase (UniProtKB Accession No. F2XBU9 (SEQ ID NO: 128)) was used as a positive control.

Row | Molecule | 7-aminoheptanoate yield compared to the positive control (F2XBU9)
1 | SEQ ID NO: 175: Tepidicaulis marinus aminotransferase (protein, listed as Tepidicaulis marinus) MSQTAQISNQTRRWQEMDARHHVHPFSDQAALAKKGARVITHAEGVYLYDSEGHKIIDGMAGLWCVNVGYGRSELAEAGYKALKELPYYNTFFQTTNPYTAELGERLAEVTPDGLDRFFFANSGSEANDSMVKIIRYYWSLQGKPEKKVFISRKQAYHGVTMTAASLSGISAMHPQAGLPLPNHAHIDFPYWYGMGGDMDPNEFGVHIAMKLEEKILEIGAENVAAFVAEPVQGAGGLIIPPDSYWPVIQEICHKYDILLHADEVICGFGRTGNWFGSHTYGIVPDTMAMAKGMTSGYQPLSAVALGPRVGDALHNSGEEWSHGFTYSGHPVASAVALANLDVLQKDKLVEKAGGETGEHFLKHLHALADHPIVGETRGVGLLGAIELVKDKKTRERFEGDTGGLCRDHCFENDLIMRAIGNTMVLSPPLSITKAELDELFTLARKALDATAKDLGAM | higher 7-aminoheptanoate yields
2 | SEQ ID NO: 178: Defluviimonas sp. 20V17 aminotransferase (protein, Defluviimonas sp. 20V17, Defluviimonas sp; 20V17 aminotransferase) MNELSNSVAHADITTILHPYTDARMHEQKGPLVIEKGDGVHVIDQSGKRYIEAMSGLWSVAVGFSQTRLRDAAAAQMEKLPYYHTFASKSHEPSVRLAEKLVEMTPENLTRVFYTSSGSEANDTVIKLVWYMNNALGRPQKKKFLARNKAYHGITIASGSLTGLPGNHRDFDLPAIPVVHLTCPHLYRFGQEGETEAQFCARLLKEAEDTILAEGPETIAAFIGEPVMGAGGVMVPPEGYWQGIEALCRKYDILLVSDEVINGFGRTGARWGCEKMGFTPDILVTSKQLTSSYMPLAAIVFSEDIYNVIADNTHKLGGFGHGFTASGHPVACAVGLENLAIIEEQGLMENAAKMGERLQAGLAKLADHPLVGEVRGTGLIAAVELVADKATKRPFDPVGKVGGKVFEYGHEEGVIFRNLGDSIAVCPPLIVTEHDVDEIVRLMGIAIDRAADWARAEGLVA | higher 7-aminoheptanoate yields
3 | SEQ ID NO: 177: Pseudooceanicola batsensis aminotransferase (protein, listed as Pseudooceanicola batsensis, Pseudooceanicola batsensis (strain ATCC BAA-863 / DSM 15984 / KCTC 12145 / HTCC2597), Pseudooceanicola batsensis aminotransferase) MKDDNFLKEHNARALWHPMGAPGDSMANPPVIISSASGSRIRDIDGHETVDGVGGLWCANLGYSNDAVKEAIAKQLHELPYYSAFAGCTNPSAIEASVAVQEFFAEDGIGRVFFTSGGSDSVDTCLRLARQYHQVKGAPTRTKFLSLKKGYHGTHFGGASVNGNNRFRIGYEPLLPGCFHLTAPHAYRNPYDEADPAALARKIAAEMVDEIEFQGPETIAAFIMEPILGAGGVIVPDPTFMGLMREICTRYGILMIADEVICGFGRTGDWTGSRHWGVRPDMMSVAKGITSAYFPVGAALISEEVAEVFEKDTSGAAAIWHGYTYSAHPVGAAAVTACLSETLRLDTRTNAAARGTQLYQGLLGLKEKYDIIGDVRGGHGLMTAIEFVTDRAKKTPMDAATVKTIHSRVYEAGAMVRPAPPNLLMSPPLIITEAEVRTIIEALDTAIGSV | higher 7-aminoheptanoate yields
4 | SEQ ID NO: 179: Sphingobacterium spiritivorum ATCC 33861 aminotransferase (protein, Sphingobacterium spiritivorum ATCC 33861, Sphingobacterium spiritivorum ATCC 33861 aminotransferase) MIKEATVHERLAKHILADGLPLVIDLEKSHDSYIVDIEGNEYLDMFSMFASSPIGYNHPHIVKNSDLLKKVAINKLALSDIYPREFADFVDTFERVAIPAELSYCFFIDGGALAVENALKAAFDWKTRLNISRGIQQEASEVIHFKQAFHGRTGYTLSLTNTKDPRKYMYFPKFDWPRITNPKLHFPLTEESVTETIKAEQQAIQEIEAAIAKNPDAIACLILEPIQAEGGDNHFRTEFFQELRRICDDHDILLILDEVQTGLALTGKMWAYEHYGIIPDLISFGKKSQVCGVLAHREKFDRVEKHVFKESSRINSTFGGNLVDMMRFKLILEVIEQENLVQQAESLGEYLLEKLEQLAKRHSQLSNVRGKGLLASFDFQTEQQRDEFVKRAMNNKLLILGCGDKSIRFRPHLTVTVEQLDKALALVEKSL | higher 7-aminoheptanoate yields
5 | SEQ ID NO: 181: Bradyrhizobium sp. DOA9 aminotransferase (protein, Bradyrhizobium sp. DOA9, Bradyrhizobium sp; DOA9 aminotransferase) MVAKQLSNSLAHADISATLHPYTNARAHERQGPVIIDRGEGIYVYDDAGKEYIEGLAGLWSVAIGFDEPRIVEVAAAQMAKLPYYHTFSHKSHEPSIRLAEKLVGMTPEPLSRVFFTSSGSEANDTMIKMVWYMNNALGRPKKKKFLARHRAYHGVTVASGSLTGLPNNHKDFDLPVIPVRHLTCPHFYRFAQTEETEAEFSARLVSEAEATILEEGPDTIAAFVGEPLMAAGGVMPPPKGYWQGIEALCRKYDILLVADEVICGLGRLGTRFGCEHYHFTPDIMIVSKQLTSSYMPLAAVIFSETIYNAIADNTAKIGTFGHGFTASGHPVATAVALENLKIIEERDLVGNAARMGRILQARLGELAAHPLVGEVRGVGLIAGIELVSEKHTRRPFASAGEVGAAAFAAAQRHGLIVRAIGDTIALCPPLIINEDQVHELVARLGDALDDTAQWRSAENLN | higher 7-aminoheptanoate yields
6 | SEQ ID NO: 180: Ramlibacter tataouinensis aminotransferase (protein, listed as Ramlibacter tataouinensis, Ramlibacter tataouinensis (strain ATCC BAA-407 / DSM 14655 / LMG 21543 / TTB310), Ramlibacter tataouinensis aminotransferase) MAYNDFDTGNHWLPFTPNRHFKKEPRVFVAADGMHFTTHDGRQVVDGISSLWCVGAGHNRKPINEAIKKQLDTLDYATAFNAANDQAFLAAQKIAAMAPGDLNKVLFCNSGSEAADTSMKVALAYHRARGEGHRNIFIGRERGYHGVGFGGMSVGGIPANRKVYGTALLPRVDHMRFIHDPANAYIHNQEPVSQEDYLLELEQRILPLHSPENVAAIIVEPVAGSAGWYLPPKGYLKRLREICDKHGILLIFDEVITGFGRMGTSFGADFYGVVPDMLNFAKCVTNGVIPLGGVICRDKLYDTMMKTDAPEHVIEFFHGYTYSGHPVSCAAAIATLDLYQKEGLFPRAGEMGKVLGDAFHSTFKGLPNVVGIRSLGLAAAVELAPIAGLPGKRAYDIYLDCFRKGALVRPAGDVVVIAPPYVVEKSHIDQLVNTLADSIRQHA | higher 7-aminoheptanoate yields
7 | SEQ ID NO: 176: Firmicutes bacterium CAG:24 aminotransferase (protein, Firmicutes bacterium CAG:24, Firmicutes bacterium CAG:24 aminotransferase) MGELMQQYIDEAEQDLLHTYNRYQVVLDRGDGVSLYDIEGKRYLDFVAGIAVFALGYHNAEYNDALKAQIDKVIHTSNYYYNVPAVEAARHLKKVSRMDRVFFTNSGAEAIEGAIKAARKYAYLKDGTTDHEIIAMNHSFHGRTMGALSVTGNPHYREAFEPGIGNIRFADLNDFDSVLACVNDKTCAILLETVQGEGGIYPVQEDFLKKVRALCDEKDILLILDEIQCGMGRTGYWYAWQKYGVKPDIMTTAKALGCGVPVGAFLMTEKVGQHSLTAGDHGTTYGGNPLACAAVAKVLDLFEENNILEHVREVSAYLEEKLDSLAAKYDFITDRRGMGLMQGLVFDRPVAPVINAALENGLILINAGTNIIRFVPPLVITDADVDEMIEILDSCLKTFQEQNA | higher 7-aminoheptanoate yields
